Laboratory results: US20250074980A1 (BRIGHAM AND WOMEN S HOSPITAL, published 2025)

What was measured:
[1] = molecular target: T1, His-tagged CEACAM1 (human, UniProt P13688 35-428); assay: SPR single-cycle, supernatant IgG captured
T1 construct: 45 kDa SPR analyte; also called CEACAM1-HIS; CEACAM1 analyte
T1 sequence: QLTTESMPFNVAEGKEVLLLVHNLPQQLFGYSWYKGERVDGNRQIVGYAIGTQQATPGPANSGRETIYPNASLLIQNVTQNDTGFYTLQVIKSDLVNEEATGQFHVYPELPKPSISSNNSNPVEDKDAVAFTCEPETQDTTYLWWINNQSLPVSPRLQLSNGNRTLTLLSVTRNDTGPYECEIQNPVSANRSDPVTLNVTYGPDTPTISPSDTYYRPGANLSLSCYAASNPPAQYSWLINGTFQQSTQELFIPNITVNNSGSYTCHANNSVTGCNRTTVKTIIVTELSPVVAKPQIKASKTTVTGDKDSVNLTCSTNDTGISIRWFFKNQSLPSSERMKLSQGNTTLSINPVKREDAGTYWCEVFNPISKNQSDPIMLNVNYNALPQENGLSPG
Method: In order to assess the binding of the humanized, affinity matured reformatted lead IgGs, single-cycle kinetics analysis was performed on crude supernatants using a Biacore T200 running Biacore T200 Control Software V2.0.1 and Biacore T200 Evaluation Software V3.0. Antibodies were diluted in HBS-P+ to a final concentration of 0.5 μg/ml. At the start of each cycle, antibodies were loaded onto Fc2, Fc3 and Fc4 of the Protein A chip. IgGs were captured at a flow rate of 10 μl/min to give an immobilisation level (RL) of ˜100 RU (a level calculated to obtain a Rₘₐₓ of ˜50-150 RU once the analyte is bound). The surface was then allowed to stabilize. Single-cycle kinetics data was obtained with CEACAM1 as the analyte at a flow rate of 80 μl/min to minimize any potential mass transfer effects. Multiple repeats with the parent (VH1/Vκ8 S29A) antibody were performed to check the stability of the surface and analyte over the kinetic cycles. The signal from the reference channel Fc1 (no antibody) was subtracted from that of Fc2, Fc3 and Fc4 to correct for differences in non-specific binding to the reference surface. A three point, two-fold dilution range from 70 nM to 280 nM CEACAM1 without regeneration between each concentration was used. The signal from each antibody blank run (no CEACAM1) was subtracted to correct for differences in surface stability. The association phase for the three injections of increasing concentrations of CEACAM1 was monitored for 80 seconds each time and a single dissociation phase was measured for 150 seconds following the last injection of CEACAM1. Regeneration of the Protein A surface was conducted using two injections of 10 mM glycine-HCL pH 1.5 followed by a stabilization period of 250 seconds.

[2] = molecular target: T1, His-tagged CEACAM1; assay: SPR single-cycle, purified IgG captured
In short: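 On a Biacore T200, purified IgG was captured on a Series S Protein A chip, and His-tagged CEACAM1 was passed over it as the analyte in single-cycle kinetics surface plasmon resonance at 25° C in HBS-P+ (pH 7.4). Reference-channel and blank-run signals were subtracted before fitting kon, koff and Kd, with relative KD calculated against the parent antibody assayed in the same experiment.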

[3] = molecular target: T1, His-tagged CEACAM1; assay: SPR single-cycle, supernatant IgG captured; remark: listed apart in the source
In short: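 His-tagged CEACAM1 served as analyte over Protein A-captured IgG in single-cycle surface plasmon resonance on a Biacore T200, performed at 25° C in HBS-P+ (pH 7.4). The IgG was taken from supernatants of transiently PEI-transfected HEK EBNA cells grown in 6-well plates and harvested 5-7 days later. Relative KD, alongside fitted Kon, koff and Kd, was referenced to the parent antibody run in the same experiment.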

B1: 8H3_9B3/CP08E05 (antibody, IgG4, V domains shown)
VH: EVQLLESGGGLVQPGGSLRLSCAASGFTFNAHAISWVRQAPGKGLEWVATISSGGTYTYYPDSVKGRFTISRDNSKNTLYLQMNSLKAEDTAMYYCARHDFDYFPYWFAHWGQGTLVTVSS
VL: EIVLTQSPATLSLSPGERATLSCRANSAVSYMYWYQQKPGQAPRPWIYLTSNRATGVPARFSGSGSGTDYTLTISSLEPEDFAVYYCQQWTTNPPTFGQGTKLEIK
notes: IgG4 (S241P), kappa
- Kd [1]: 77 nM
- koff [1]: 0.0072 s⁻¹
- kon [1]: 93000 M⁻¹ s⁻¹
- relative KD to parent [1]: 7.3
- Kd [2]: 69 nM
- koff [2]: 0.0065 s⁻¹
- kon [2]: 95000 M⁻¹ s⁻¹
- relative KD to parent [2]: 6.9

B2: CP09B03/CP08E05 (antibody, IgG4, V domains shown)
VH: EVQLLESGGGLVQPGGSLRLSCAASGFTFNAHAISWVRQAPGKGLEWVATISSGGTYTYYPDSVKGRFTISRDNSKNTLYLQMNSLKAEDTAMYYCARHDFDYDAAWFAYWGQGTLVTVSS
VL: EIVLTQSPATLSLSPGERATLSCRANSAVSYMYWYQQKPGQAPRPWIYLTSNRATGVPARFSGSGSGTDYTLTISSLEPEDFAVYYCQQWTTNPPTFGQGTKLEIK
notes: IgG4 (S241P), kappa
- Kd [3]: 97 nM
- koff [3]: 0.01 s⁻¹
- kon [3]: 110000 M⁻¹ s⁻¹
- relative KD to parent [3]: 5.7
- Kd [2]: 90 nM
- koff [2]: 0.0096 s⁻¹
- kon [2]: 110000 M⁻¹ s⁻¹
- relative KD to parent [2]: 5.3

B3: CP09C02/CP08F05 (antibody, IgG4, V domains shown)
VH: EVQLLESGGGLVQPGGSLRLSCAASEFTFSDHAMSWVRQAPGKGLEWVATISSGGTYTYYPDSVKGRFTISRDNSKNTLYLQMNSLKAEDTAMYYCARHGFDYDAAWFAYWGQGTLVTVSS
VL: EIVLTQSPATLSLSPGERATLSCRANSAVSYMYWYQQKPGQAPRPWIYLTSNRATGVPARFSGSGSGTDYTLTISSLEPEDFAVYYCQQWTSNPPTFGQGTKLEIK
notes: IgG4 (S241P), kappa
- Kd [3]: 100 nM
- koff [3]: 0.011 s⁻¹
- kon [3]: 110000 M⁻¹ s⁻¹
- relative KD to parent [3]: 5.5
- Kd [2]: 95 nM
- koff [2]: 0.01 s⁻¹
- kon [2]: 110000 M⁻¹ s⁻¹
- relative KD to parent [2]: 5

B4: 8H3_9B3/CP08F05 (antibody, IgG4, V domains shown)
VH: EVQLLESGGGLVQPGGSLRLSCAASGFTFNAHAISWVRQAPGKGLEWVATISSGGTYTYYPDSVKGRFTISRDNSKNTLYLQMNSLKAEDTAMYYCARHDFDYFPYWFAHWGQGTLVTVSS
VL: EIVLTQSPATLSLSPGERATLSCRANSAVSYMYWYQQKPGQAPRPWIYLTSNRATGVPARFSGSGSGTDYTLTISSLEPEDFAVYYCQQWTSNPPTFGQGTKLEIK
notes: IgG4 (S241P), kappa
- Kd [1]: 70 nM
- koff [1]: 0.0063 s⁻¹
- kon [1]: 90000 M⁻¹ s⁻¹
- relative KD to parent [1]: 8
- Kd [2]: 59 nM
- koff [2]: 0.0056 s⁻¹
- kon [2]: 95000 M⁻¹ s⁻¹
- relative KD to parent [2]: 8

B5: 8H3_9C2/CP08F05 (antibody, IgG4, V domains shown)
VH: EVQLLESGGGLVQPGGSLRLSCAASEFTFSDHAMSWVRQAPGKGLEWVATISSGGTYTYYPDSVKGRFTISRDNSKNTLYLQMNSLKAEDTAMYYCARHGFDYFPYWFAHWGQGTLVTVSS
VL: EIVLTQSPATLSLSPGERATLSCRANSAVSYMYWYQQKPGQAPRPWIYLTSNRATGVPARFSGSGSGTDYTLTISSLEPEDFAVYYCQQWTSNPPTFGQGTKLEIK
notes: IgG4 (S241P), kappa; also called 8H3_9C2/CPO08_F05
- Kd [1]: 93 nM
- koff [1]: 0.0061 s⁻¹
- kon [1]: 66000 M⁻¹ s⁻¹
- relative KD to parent [1]: 6
- Kd [2]: 76 nM
- koff [2]: 0.0055 s⁻¹
- kon [2]: 73000 M⁻¹ s⁻¹
- relative KD to parent [2]: 6.3

B6: 8H3_9B3/Vκ8 S29A (antibody, IgG4, V domains shown)
VH: EVQLLESGGGLVQPGGSLRLSCAASGFTFNAHAISWVRQAPGKGLEWVATISSGGTYTYYPDSVKGRFTISRDNSKNTLYLQMNSLKAEDTAMYYCARHDFDYFPYWFAHWGQGTLVTVSS
VL: EIVLTQSPATLSLSPGERATLSCRANSAVSYMYWYQQKPGQAPRPWIYLTSNRATGVPARFSGSGSGTDYTLTISSLEPEDFAVYYCQQWSSNPPTFGQGTKLEIK
notes: IgG4 (S241P), kappa
- Kd [1]: 77 nM
- koff [1]: 0.0069 s⁻¹
- kon [1]: 90000 M⁻¹ s⁻¹
- relative KD to parent [1]: 7.2
- Kd [2]: 67 nM
- koff [2]: 0.0062 s⁻¹
- kon [2]: 92000 M⁻¹ s⁻¹
- relative KD to parent [2]: 7.1
